The record followed here is paper PMC10816697.

Experiment [1] has as its target Skeletal muscle actin (rabbit) (UniProt P68135).
Experiment [2] has as its target Arp2/3 complex purified from sheep brain (sheep).
The target is the same in experiment [3]. The experiment is described as follows: TIRF microscopy of single actin filaments in microfluidics; branch dissociation rate against GMF concentration (up to 1500 nM), 0.3 μM G-actin, branches aged 30 min (ADP-Arp2/3 complex), average 1 pN pulling force; Michaelis-Menten fit, rapid equilibrium between GMF and the branch junction assumed; apparent dissociation constant; 25°C, pH 7.0, 50 mM KCl.

As for “Arp2/3 complex from Saccharomyces cerevisiae (from UniProt P32381 1-391; P47117 1-449)”, in experiment [1], the branch renucleation ratio of branches made with budding yeast Arp2/3 complex on mammalian actin is below 10%.

B1: drosophila GMF (glia maturation factor) (natural protein)
chain: MSDNQICDISNEVLEELKKFRFSKSKNNAALILKVDREKQTVVLDEFIDDISVDELQDTLPGHQPRYVIYTYKMVHDDQRISYPMCFIFYTPRDSQIELQMMYACTKSALQREVDLTRVYEIRELDELTEEWLKAKLK
For the molecule B1, the branch renucleation ratio against GMF concentration (0.3 and 0.6 μM actin): GMF concentration of the half-maximum effect; with 25 nM GMF and 0.6 μM actin the ratio was reduced more than threefold in experiment [2] was below 25 nM. Moreover, the Kd in experiment [3] is 260 nM.
